Data reported in paper PMC9089897 (2022).

Assays:
[1] = biological target: T1, biotinylated avi-tagged SARS-CoV-2 (Wuhan) receptor binding domain (RBD) (SARS-CoV-2 (Wuhan strain), UniProt P0DTC2 319-541); assay: BLI
[2] = biological target: T1, biotinylated avi-tagged SARS-CoV-2 …; assay: BLI; remark: listed apart in the source

B1: THSC20.HVTR04 (IgG) (antibody, V domains shown)
VH: QVQLVESGGGVVQPGRSLRLSCAASGFTFSNYAIHWVRQAPGKGLEWVAVVSYDGSNKYYAESVKGRFTISRDNSKNTLSLQMISLRPEDTAVYYCASVADTAMVPEWYFDLWGQGTMVTVSS
VL: QSVLTQPRSVSGSPGQSVTISCTGTSSDVGAYNYVSWYQQHPGKAPKLMIYDVSARPSGVPDRFSGSKSGNTASLTISGLQAEDEADYYCCSYAGSWVFGGGTKLTVL
**Q.** With B1 as the binder, how does the koff [1] read?
**A.** 9.15e-05 s⁻¹

B2: THSC20.HVTR26 (IgG) (antibody, V domains shown)
VH: EVQLVESGGGLVQPGGSLRLSCAASGFTVSSNYMSWVRQAPGKGLEWVSAIYSGDSTYYADSVKGRFTISRHNPKNTLYLQMNSLRAEDTAVYYCARLVGALTNIVVSGDGGAFDIWGQGTMVTVSS
VL: SYELTQPASVSGSPGQSITISCTGTSSDVGSYNLVSWYQQHPGKAPKLMIYEVSKRPSGVSNRFSGSKSGNTASLTISGLQAEDEVDYYCCSYAGSSTWVFGGGTKLTVL
**Q.** For B2, which koff [1] is on record?
**A.** 0.000131 s⁻¹

**Q.** What about the Kd [2] of the same binder?
**A.** 0.255 nM
